Laboratory results published in US20040132025A1, “Ampk-related serine/threonine kinase, designated snark” (priority 2001, published 2004).
Marks after values point to notes of the source that are not given here. Each block holds one compound with its values, some of them ahead of it.

Columns and labels:
AMPK-α2 = target: T1, AMPK-α2 (Rattus norvegicus, UniProt P80385+Q09137); experiment: AMPK-α2 activity in NRKC cells treated with AICAR; format: cell-based; conditions: ImM AICAR, same assay conditions, data not shown
T1 construct: increased at least 2-fold upon treatment with ImM AICAR in NRKC cells; endogenous in cells; host or cells: NRKC (neonatal rat keratinocytes)

SNARK [1] = target: T2, SNARK (Rattus norvegicus, UniProt Q66HE5); experiment: Activation of SNARK in NRKC cells using AICAR; format: cell-based; set-up: In the assays performed with SNARK immunoprecipitated from NRKC cell lysates; endogenous in cells; host or cells: NRKC (neonatal rat keratinocytes); conditions: 1 mM AICAR for one hour, kinase assay with 200 μM AMP and SAMS peptide, p<0.05
T2 sequence (Q66HE5 1-630): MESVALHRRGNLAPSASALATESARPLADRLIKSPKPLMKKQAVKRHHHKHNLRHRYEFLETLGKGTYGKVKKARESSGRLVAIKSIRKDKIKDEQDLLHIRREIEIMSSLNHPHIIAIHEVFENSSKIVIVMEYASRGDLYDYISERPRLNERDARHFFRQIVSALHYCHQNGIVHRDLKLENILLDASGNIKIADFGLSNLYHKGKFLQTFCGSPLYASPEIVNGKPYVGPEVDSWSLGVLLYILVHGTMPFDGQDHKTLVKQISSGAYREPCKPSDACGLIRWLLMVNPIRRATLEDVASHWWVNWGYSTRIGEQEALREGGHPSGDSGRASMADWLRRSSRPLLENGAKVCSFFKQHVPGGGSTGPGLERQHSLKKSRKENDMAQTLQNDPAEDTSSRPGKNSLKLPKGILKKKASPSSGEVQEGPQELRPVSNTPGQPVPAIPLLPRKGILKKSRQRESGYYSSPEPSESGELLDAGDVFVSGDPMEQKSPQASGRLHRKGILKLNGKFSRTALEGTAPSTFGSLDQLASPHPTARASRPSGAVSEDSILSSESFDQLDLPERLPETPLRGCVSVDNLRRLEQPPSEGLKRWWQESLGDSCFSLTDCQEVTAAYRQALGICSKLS
Method: FIG. 8.(A) Activation of SNARK in NRKC cells using AICAR. NRKC cells were treated with 0, 0.5 mM, 1 mM or 2 mM AICAR for 1 hour. SNARK protein was immunoprecipitated from 500 μg of cell lysates with SNARK antiserum and kinase assays were performed in the presence of 200 μM AMP using the SAMS peptide. Solid box represents control (0 mM AICAR) samples and hatched boxes represent AICAR-treated samples. Data is expressed as phosphotransferase activity relative to control values (control=1) and represents the means±S.E.M. for 2 individual experiments with at least 10 samples per group per experiment. *p<0.06, relative to control values. […] Results are expressed as phosphotransferase activity relative to control values (control=1) and represents the mean±S.E.M. from 2 individual experiments with at least 10 samples per group per experiment. *p<0.03, relative to control values. […]
The adenosine analogue, 5-aminoimidizole-4-carboxamide riboside (AICAR), provides a means of stimulating AMPK activity in whole cells, even in the presence of high glucose concentrations, and mimics the effects of AMP on the AMPK cascade. Intriguingly, SNARK activity was induced 2.8-fold (p<0.05) in NRKC cells when treated with 1 mM AICAR for one hour (FIG. 8A, hatched box), as compared to SNARK activity measured in untreated NRKC cells (solid box).

AMPKα1 = target: T3, AMPKα1 (Rattus norvegicus, UniProt P54645+P80385); experiment: AMPKα1 activity in NRKC cells treated with AICAR; format: cell-based; conditions: treatment with AICAR, data not shown
T3 construct: endogenous in cells; host or cells: NRKC (neonatal rat keratinocytes)

SNARK [2] = target: T2, SNARK; experiment: SNARK phosphotransferase activity (SAMS peptide) assayed in the presence of AMP, wildtype and SNARK-transfected BHK cell lysates; format: biochemical, hamster; set-up: The complete open reading frame of rat SNARK was subcloned into the pcDNA3.1 vector; expressed in transfected cells; conditions: 200 μM AMP in assay; SNARK-transfected BHK cell lysates
Method: (§1) FIG. 7. […] SNARK protein was immunoprecipitated from 500 μg of cell lysate from wildtype BHK, BHK−1, BHK+1 and BHK+11 cells. Kinase assays were performed using the 200 μM SAMS peptide as substrate in kinase reaction cocktail. NRKC cells (stippled box); wildtype BHK cells (solid box); BHK+1 and +11 cells (hatched boxes). Results are the means±S.E.M. for 2 experiments (n=5 each time). For comparative purposes, AMPKα2 activity was assayed in these cell lines and found to be equivalent to, 4-fold lower and 1.5-fold lower than the SNARK activity levels measured under basal growth conditions in wildtype BHK, SNARK-transfected BHK and NRKC cell lines, respectively (data not shown).
(§2) Kinase Assay—Following immunoprecipitation with antiserum, SNARK activity was analysed by performing kinase assays with immunoprecipitated SNARK and a variety of substrates (MBP, B-casein, whole histone fraction, protamine sulphate and a synthetic peptide substrate (HMRSAMSGLHLVKRR, ‘SAMS’ peptide). Kinase assays with the SAMS peptide were performed essentially as described, except that the three washes were done with IP buffer containing 500 mM NaCl followed by a final wash in kinase assay buffer. For kinase assays performed to determine substrate specificity (with substrates other than SAMS peptide), reactions included 30 ug of substrate, 500 nM PKA inhibitor peptide and 1 uM PKC inhibitor peptide. […]

SNARK [3] = experiment: as above; format: biochemical, hamster; conditions: 200 μM AMP in assay; wildtype BHK cell lysates
Method: as §1, §2

SNARK [4] = target: T2, SNARK; experiment: SNARK phosphotransferase activity (SAMS peptide) assayed in the presence of AMP, NRKC cell lysates; format: biochemical; set-up: In the assays performed with SNARK immunoprecipitated from NRKC cell lysates; endogenous in cells; host or cells: NRKC (neonatal rat keratinocytes); conditions: 200 μM AMP in assay; NRKC cells; p<0.001
Method: as §1, §2

SNARK [5] = target: T2, SNARK; experiment: Kinase assay of immunoprecipitated SNARK with candidate substrates (substrate specificity); format: biochemical; set-up: In the assays performed with SNARK immunoprecipitated from NRKC cell lysates; endogenous in cells; host or cells: NRKC (neonatal rat keratinocytes); conditions: for Activity (phosphotransferase activity of SNARK towards substrate): SNARK immunoprecipitated from 500 ug NRKC cell lysate, SAMS peptide 250 uM or 30 ug of other substrate, 1 μM PKC inhibitor and 500 nM PKA inhibitor peptides, 30 C, means±S.E.M.; for Ability of SNARK to phosphorylate the substrate: SNARK immunoprecipitated from NRKC cell lysates, PKA and PKC peptide inhibitors included
Method: Kinase Assay—Following immunoprecipitation with antiserum, SNARK activity was analysed by performing kinase assays with immunoprecipitated SNARK and a variety of substrates (MBP, B-casein, whole histone fraction, protamine sulphate and a synthetic peptide substrate (HMRSAMSGLHLVKRR, ‘SAMS’ peptide). Kinase assays with the SAMS peptide were performed essentially as described, except that the three washes were done with IP buffer containing 500 mM NaCl followed by a final wash in kinase assay buffer. For kinase assays performed to determine substrate specificity (with substrates other than SAMS peptide), reactions included 30 ug of substrate, 500 nM PKA inhibitor peptide and 1 uM PKC inhibitor peptide. Activities were calculated as fmol of phosphate incorporated into the SAMS peptide/min per milligram of lysate subjected to immunoprecipitation, minus the activity obtained with a blank reaction (cell lysate and Protein A-Sepharose only).
Peptide inhibitors of PKA and PKC were included in these reactions to eliminate phosphorylation of these substrates by these enzymes.
Immunoprecipitation of 500 ug of NRKC cell lysate with SNARK antiserum was performed as described above. Phosphotransferase activity was assayed with either SAMS peptide (250 uM) or 30 ug of dephosphorylated MBP, dephosphorylated β-casein, whole histone fraction or protamine sulfate in the presence of 1 μM PKC inhibitor and 500 nM PKA inhibitor peptides. Phosphortransferase activity is expressed in fmol of phosphate transferred to the SAMS peptide/min at 30 C per mg of protein subjected to immunoprecipitation. Results are means±S.E.M. for two individual assays with at least eight samples per group. *p<0.01 compared with all other substrates.

[6] = target: dephosphorylated myelin basic protein; experiment: cell-based or functional assay
protamine sulfate = experiment: cell-based or functional assay
SAMS peptide = experiment: cell-based or functional assay
whole histone fraction = experiment: cell-based or functional assay
[7] = target: dephosphorylated B-casein; experiment: cell-based or functional assay

T1 sequence (Q09137 whole entry): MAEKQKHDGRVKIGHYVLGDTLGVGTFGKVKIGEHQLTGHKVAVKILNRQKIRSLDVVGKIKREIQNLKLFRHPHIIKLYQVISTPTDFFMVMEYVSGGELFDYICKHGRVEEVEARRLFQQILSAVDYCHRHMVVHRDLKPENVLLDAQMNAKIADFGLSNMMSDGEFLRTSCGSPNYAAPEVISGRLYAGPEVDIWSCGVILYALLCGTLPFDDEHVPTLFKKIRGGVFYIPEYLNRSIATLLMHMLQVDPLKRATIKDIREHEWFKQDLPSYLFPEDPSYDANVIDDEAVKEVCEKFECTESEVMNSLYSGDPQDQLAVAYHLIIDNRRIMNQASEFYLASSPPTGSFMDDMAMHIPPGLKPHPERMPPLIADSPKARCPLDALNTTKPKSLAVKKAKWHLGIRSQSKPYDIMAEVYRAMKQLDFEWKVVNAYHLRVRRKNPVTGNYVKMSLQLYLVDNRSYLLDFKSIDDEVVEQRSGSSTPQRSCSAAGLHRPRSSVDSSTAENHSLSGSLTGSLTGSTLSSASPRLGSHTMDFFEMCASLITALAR
T1 sequence (P80386 whole entry partner): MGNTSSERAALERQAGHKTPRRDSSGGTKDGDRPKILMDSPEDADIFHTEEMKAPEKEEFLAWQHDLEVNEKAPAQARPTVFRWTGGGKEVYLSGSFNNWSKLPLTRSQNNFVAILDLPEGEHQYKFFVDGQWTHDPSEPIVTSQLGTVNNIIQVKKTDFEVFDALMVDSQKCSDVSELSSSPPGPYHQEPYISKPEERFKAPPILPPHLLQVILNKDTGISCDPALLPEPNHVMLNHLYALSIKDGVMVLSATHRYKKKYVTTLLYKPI
T1 sequence (P80385 whole entry): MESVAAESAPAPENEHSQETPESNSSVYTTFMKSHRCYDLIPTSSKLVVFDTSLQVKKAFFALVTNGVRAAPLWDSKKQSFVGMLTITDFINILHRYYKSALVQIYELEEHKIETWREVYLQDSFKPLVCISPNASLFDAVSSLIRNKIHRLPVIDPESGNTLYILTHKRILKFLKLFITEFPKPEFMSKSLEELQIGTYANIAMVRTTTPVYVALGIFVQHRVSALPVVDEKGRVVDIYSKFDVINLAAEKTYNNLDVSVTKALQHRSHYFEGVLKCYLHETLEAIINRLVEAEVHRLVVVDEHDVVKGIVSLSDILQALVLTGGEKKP
T3 sequence (P54645 whole entry): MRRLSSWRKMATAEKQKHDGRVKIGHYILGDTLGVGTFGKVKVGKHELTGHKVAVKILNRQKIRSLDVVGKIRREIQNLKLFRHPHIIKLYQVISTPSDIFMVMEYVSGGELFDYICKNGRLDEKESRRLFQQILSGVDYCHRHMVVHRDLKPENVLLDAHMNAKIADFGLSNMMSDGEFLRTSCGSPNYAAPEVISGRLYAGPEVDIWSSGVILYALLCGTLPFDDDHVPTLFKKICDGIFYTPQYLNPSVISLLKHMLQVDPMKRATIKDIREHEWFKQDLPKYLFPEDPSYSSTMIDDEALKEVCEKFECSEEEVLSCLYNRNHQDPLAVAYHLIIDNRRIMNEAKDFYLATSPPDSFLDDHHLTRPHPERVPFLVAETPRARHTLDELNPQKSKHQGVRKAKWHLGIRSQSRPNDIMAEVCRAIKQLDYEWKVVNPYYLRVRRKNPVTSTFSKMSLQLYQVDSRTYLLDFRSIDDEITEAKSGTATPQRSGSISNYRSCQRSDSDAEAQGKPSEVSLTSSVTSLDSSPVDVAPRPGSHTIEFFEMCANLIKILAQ
T3 sequence (P80386 whole entry partner): as the sequence (P80386 whole entry partner) above
T3 sequence (P80385 whole entry): as the sequence (P80385 whole entry) above

Compound: NC(=O)c1ncn([C@@H]2O[C@H](CO)[C@@H](O)[C@H]2O)c1N [AICAR, 5-aminoimidizole-4-carboxamide riboside]
Increase in AMPK-α2 activity over basal (AMPK-α2): at least 2 fold
Induction of SNARK activity relative to untreated cells (SNARK [1]): 2.8 fold
Stimulation of AMPKα1 activity (AMPKα1): not stimulated

Compound: Nc1ncnc2c1ncn2[C@@H]1O[C@H](COP(=O)(O)O)[C@@H](O)[C@H]1O [AMP]
Change in SNARK phosphotransferase activity (SNARK [2]): no significant change
Change in SNARK phosphotransferase activity (SNARK [3]): no significant change
Increase in SNARK phosphotransferase activity (SNARK [4]): 1.7 fold

Compound: Protamine sulfate
Activity (phosphotransferase activity of SNARK towards substrate) (SNARK [5]): 7 ± 2 fmol/min per mg
Ability of SNARK to phosphorylate the substrate (SNARK [5]): minimal

Second part, the compound after the results:

Activity (phosphotransferase activity of SNARK towards substrate) (SNARK [5]): 145 ± 46* fmol/min per mg
Ability of SNARK to phosphorylate the substrate (SNARK [5]): able to phosphorylate
Compound: HMRSAMSGLHLVKRR [SAMS peptide, synthetic peptide AMPK substrate corresponding to the site in rat acetyl-CoA carboxylase phosphorylated by AMPK]

Activity (fmol/min per mg); phosphotransferase activity of SNARK immunoprecipitated from NRKC cell lysate (fmol/min per mg) [6]: 91
Activity (fmol/min per mg); phosphotransferase activity of SNARK immunoprecipitated from NRKC cell lysate (fmol/min per mg) (protamine sulfate): 7
Activity (fmol/min per mg); phosphotransferase activity of SNARK immunoprecipitated from NRKC cell lysate (fmol/min per mg) (SAMS peptide): 145
Activity (fmol/min per mg); phosphotransferase activity of SNARK immunoprecipitated from NRKC cell lysate (fmol/min per mg) (whole histone fraction): 19
Activity (fmol/min per mg); phosphotransferase activity of SNARK immunoprecipitated from NRKC cell lysate (fmol/min per mg) [7]: 37
Compound: rat SNARK protein (enzyme)
